These results are taken from article doi:10.1101/283192, “Disrupted structure and aberrant function of CHIP mediates the loss of motor and cognitive function in preclinical models of cerebellar CHIPopathy” (bioRxiv, 2018).

Substitutions are numbered along the chain they refer to. Names and notes keep the numbering of the source.

This series deals with the molecule itself. Nature of the series: SEC-MALS; GE Superdex 200 column, Wyatt DAWN HELEOS-II and T-Rex refractometer; 100 µl of 0.5 mg/ml of each sample loaded.

B1: CHIP-T246M, His-tagged recombinant (natural protein, human, UniProt Q9UNE7 1-303, looked up)
chain: MKGKEEKEGGARLGAGGGSPEKSPSAQELKEQGNRLFVGRKYPEAAACYGRAITRNPLVAVYYTNRALCYLKMQQHEQALADCRRALELDGQSVKAHFFLGQCQLEMESYDEAIANLQRAYSLAKEQRLNFGDDIPSALRIAKKKRWNSIEERRIHQESELHSYLSRLIAAERERELEECQRNHEGDEDDSHVRAQQACIEAKHDKYMADMDELFSQVDEKRKKRDIPDYLCGKISFELMREPCIMPSGITYDRKDIEEHLQRVGHFDPVTRSPLTQEQLIPNLAMKEVIDAFISENGWVEDY
notes: CHIP (STUB1), human, full-length protein with the SCAR16 patient mutation T246M; T246M is a mutation found in patients (p.T246M); also called T246M CHIP; source: E. coli BL21(DE3), purified (HisTrap HP); copies: 10-12
Turning to B1, the “stoichiometry N” value is 10 to 12.

B2: CHIP-H260Q, His-tagged recombinant (natural protein, human, UniProt Q9UNE7 1-303, looked up)
chain: B1 chain with M246T, H260Q
notes: CHIP (STUB1), human, full-length protein with the synthetic mutation H260Q; source: E. coli BL21(DE3), purified (HisTrap HP)
As for B2, the binding result was “binds”.
